Test results as given in the supplement of paper PMC9170038.

Test system: MS2 coat protein
Assay: apparent KD of MS2 coat protein; higher = weaker reporter binding
Details: Eterna round: R107
Description: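 RNA-MaP round R107: designed RNA switches with theophylline, tryptophan, arginine or FMN aptamers are transcribed on-chip within common flanks. They are titrated with SNAP-549-labelled MS2 coat protein in RNA-MaP buffer (100 mM Tris pH 7.5, 80 mM KCl, 4 mM MgCl2), without ligand or with the indicated ligand. Median apparent KD per design.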

[1] = input ligand: theophylline 20 uM
[2] = input ligand: tryptophan 2.4 mM
[3] = input ligand: theophylline 2 mM

Row | Sequence | apparent KD of MS2 coat protein (input ligand: arginine 13.2 mM) | apparent KD of MS2 coat protein [1] | apparent KD of MS2 coat protein [2] | apparent KD of MS2 coat protein [3] | apparent KD of MS2 coat protein (input ligand: none)
1 | AGAUAACAUGGUUUAAUAAGUUAAACUGAUACCAGUGUAUAUAAUCACCCUUGGCAGCAGCAACAUGAGGAUCACCCAUGUAAUA [JR_SSTheophyA_Sub013] | 16.2 nM | 19.9 nM | 19.6 nM | – | –
2 | AGCACUGUGACGGCCGCCACUACAUAUAGGGUGGUCAGGCCCAUAAUACAUGAGGAUCACCCAUGUAGGACCGGGUCUCAGUGCA [Omei Trp Exc B A v12] | 11.7 nM | 25.4 nM | – | 18.3 nM | –
3 | AGCCACUCGAGUGAUCCUCACGAGUGGCUACGAGGACCGGUACGGCCGCCACUCGAAUUAACAUGAGGAUCACCCAUGUAAUCAU [Brourdmod04] | 97.8 nM | 259 nM | – | 317 nM | –
4 | AGGACAUGAGGAUCACCCAUGUACACUGAAGGAGCGUCGAGAACGACAGGUAGGUCGCAGGCUAAGGAAGGUGAUGCUCAAGAAG [Exclusion Arginine A GF6] | 28.2 nM | 40.9 nM | 27.1 nM | 29.8 nM | 26.2 nM
5 | AGGCAGUAGGUGAUCCACUGCCAAGGUGAUACCAGCAUCGAAAGAUGCCCUUGGCAGCACCAACAUGAGGAUCACCCAUGUAAUA [(MT)''-(M)'-(T')-(Theo)-(Ms2)_Design1/22_9] | 36.9 nM | 186 nM | 99.2 nM | – | –
6 | AGGUAUGAUCCGGAUACCAGCGAACAUGAGGAUCACCCAUGUGACCUGAGAUAGGCUCUACGCCCUUGGCAGCCGCGAUCGCAGA [Same State Theophylline B GF11] | 10.1 nM | 14.2 nM | 12.5 nM | 9.63 nM | 11.4 nM
7 | AGGUGACAUGAGGAUCACCCAUGUGGCUUACGAGGACCGGUACGGCCGCCACUCGGUGUGACCUCCGCAUUCACAUAAUAAUCUU [Rilala] | 37.4 nM | 131 nM | – | 126 nM | –
8 | AGUCCUCUGUACCCUGAUGCCCUCACUUUACGAGGACCGGUACGGCCGCCACUCGAAUCCCAACAUGAGGAUCACCCAUGUCGAC [theeternabot_exclusion_MS2_Trp_A_26] | 30 nM | 40 nM | – | 47 nM | –
9 | AGUCUCAGUGGAAGGAGCGUCGCGACUGCUACAUGAGGAUCACCCAUGUCGCCUUGAGCGCGACAGGUAGGUCGCCACGGUAGGC [Erraraorle] | 14.1 nM | 29.6 nM | 18.2 nM | 20.8 nM | 17.5 nM
10 | AGUGUUAUAACUGAUACCAGACUUUUGCUUAUACAUGAGGAUCACCCAUGUAAAAUGGUUGUCCCUUGGCAGCAGAAAAUACACA [JR_SSTheophyB_Sub007] | 81.6 nM | 104 nM | 134 nM | – | –
11 | AGUGUUAUAACUGAUACCAGACUUUUGCUUAUACAUGAGGAUCACCCAUGUAAAAUGGUUGUCCCUUGGCAGCAGAAGUUACACA [JR_SSTheophyB_Sub008] | 104 nM | 96.1 nM | 58.6 nM | – | –
12 | AGUUACUCGAACAUGGUUGACGAGUGGCAACGAGGACCGGUACGGCCGCCACUCGAAUAAACAUGAGGAUCACCCAUGUACAAAU [T''-M'-T'-T-MS2 - Design 10.b] | 61.9 nM | 148 nM | – | 160 nM | –
13 | AUAACAUGAGGAUCACCCAUGUAAGCAGAUACCAGCUAGGAAACUAGCCCUUGGCAGCUGCAAGGUGAUCCUAGGUAUCUGCAAU [(M1)-(M2)-(T1)-(T2)-(M)'-(T)'_Design6] | 30.4 nM | 49.3 nM | 25.9 nM | 52.2 nM | 24.7 nM
14 | AUAACAUGAGGAUCACCCAUGUAAGCAGAUACCAGCUAGGAAACUAGCCCUUGGCAGCUGCAAUCCUCAUGUAUUGCAGCUGCAA [(M1)-(M2)-(T1)-(T2)-(M)'-(T)'_Design1] | 21.5 nM | 26.2 nM | 15.3 nM | – | –
15 | AUAACCCUUGACUAAAACACUAAAUCAGUUCGAGGACCGGUACGGCCGCCACUCGUGUCAAGACAUGAGGAUCACCCAUGUACCU [Isbe] | 32 nM | 45.4 nM | – | 44.3 nM | –
16 | AUAAUAAUCAUGGGUGAAGGUCCUCGCAAACGAGGACCGGUACGGCCGCCACUCGAACAUGAGGAUCACCCAUGUGUGAGGACCU [M' - T' - T - MS2 - T'' Design 2] | 24.9 nM | 59.7 nM | – | 74.1 nM | –
17 | AUAAUAUAGACGGCCGCCACUAUAAACAUGAGGAACAUGAGGAUCACCCAUGUAUGAGGAUCACCUAGGACCGGGUCAUAUAUUA [AstrosExyTryB#2] | 39.3 nM | 79.8 nM | – | 62.4 nM | –
